Source: US20180155451A1 (published 2018)
Numbering of substitutions follows the chain as printed.

B1: GpH7-A5/GpH7-HA5/GpL16-k0 (antibody, human IgG1, kappa)
heavy 1: not shown
heavy 2: QVQLVQSGAEVKKPGASVTVSCKASGYTFTDYEMHWIRQPPGEGLEWIGAIDPKTGDTAYSESFQDRVTLTADKSTSTAYMELSSLTSEDTAVYYCTRFYSYTYWGQGTLVTVSSASTKGPSVFPLAPSSKSTSGGTAALGCLVKDYFPEPVTVSWNSGALTSGVHTFPAVLQSSGLYSLSSVVTVPSSSLGTQTYICNVNHKPSNTKVDKKVEPKSCDKTHTCPPCPAPEYLGGPSVFLFPPKPKDTLMISRTPEVTCVVVDVSHEDPEVKFNWYVDGVEVHNAKTKPREEQYNSTYRVVSVLTVLHQDWLNGKEYKCKVSNKALRAPIEKTISKAKGQPREPQVYTLPPSRDELTKNQVSLTCLVKGFYPSDIAVEWESNGQPENNYKTTPPVLDSDGSFFLYSKLTVDKSRWQQGNVFSCSVMHEALHNHYTQESLSLSP
light: DIVMTQSPLSLPVTPGEPASISCQASESLVHSNRNTYLHWYLQKPGQSPQLLIYKVSNRFSGVPDRFSGSGSGTDFTLKISRVEAEDVGVYYCSQNTHVPPTFGQGTKVEIERTVAAPSVFIFPPSDEQLKSGTASVVCLLNNFYPREAKVQWKVDNALQSGNSQESVTEQDSKDSTYSLSSTLTLSKADYEKHKVYACEVTHQGLSSPVTKSFNRGEC
notes: Heterodimerized anti-glypican-3 IgG1 variant
B2: GpH7-A5/GpH7-HA15/GpL16-k0 (antibody, human IgG1, kappa)
heavy 1: not shown
heavy 2: B1 heavy 2 with Y232L, A328L
light: B1 light
notes: as for B1
B3: GpH7-A48/GpH7-B3-22-10E/GpL16-k0 (antibody, human IgG1, kappa)
heavy 1: B1 heavy 2 with Y232L, D354K, H433R, E437K
heavy 2: not shown
light: B1 light
notes: as for B1
B4: GpH7-A5/GpH7-HA18/GpL16-k0 (antibody, human IgG1, kappa)
heavy 1: not shown
heavy 2: B1 heavy 2 with Y232L, I330E
light: B1 light
notes: as for B1
B5: GpH7-A48/GpH7-B3-03-20W/GpL16-k0 (antibody, human IgG1, kappa)
heavy 1: B1 heavy 2 with Y232L, D354K, H433R, E437K
heavy 2: not shown
light: B1 light
notes: as for B1
B6: GpH7-A48/GpH7-B3-20-08L/GpL16-k0 (antibody, human IgG1, kappa)
heavy 1: B1 heavy 2 with Y232L, D354K, H433R, E437K
heavy 2: not shown
light: B1 light
notes: as for B1
B7: GpH7-A5/GpH7-HA6/GpL16-k0 (antibody, human IgG1, kappa)
heavy 1: not shown
heavy 2: B1 heavy 2 with Y232L, G234W
light: B1 light
notes: as for B1
B8: GpH7-A48/GpH7-B3-01-15Y/GpL16-k0 (antibody, human IgG1, kappa)
heavy 1: B1 heavy 2 with Y232L, D354K, H433R, E437K
heavy 2: not shown
light: B1 light
notes: as for B1
B9: GpH7-A5/GpH7-HA7/GpL16-k0 (antibody, human IgG1, kappa)
heavy 1: not shown
heavy 2: B1 heavy 2 with Y232L, S237D
light: B1 light
notes: as for B1
B10: GpH7-A5/GpH7-HA11/GpL16-k0 (antibody, human IgG1, kappa)
heavy 1: not shown
heavy 2: B1 heavy 2 with Y232L, S296A
light: B1 light
notes: as for B1
B11: GpH7-A48/GpH7-B3-06-09D/GpL16-k0 (antibody, human IgG1, kappa)
heavy 1: B1 heavy 2 with Y232L, D354K, H433R, E437K
heavy 2: not shown
light: B1 light
notes: as for B1
B12: GpH7-A48/GpH7-B3-15-02A/GpL16-k0 (antibody, human IgG1, kappa)
heavy 1: B1 heavy 2 with Y232L, D354K, H433R, E437K
heavy 2: not shown
light: B1 light
notes: as for B1

The binders below were run against T1, FcγRIIIa extracellular domain with C-terminal His tag (human, UniProt P08637 17-208) (assay: SPR (Biacore), antibody captured on antigen peptide chip, FcγR as analyte).
T1 construct: extracellular domain; also called FcgRIIIa; CD16A
Source text: The expression vectors for the respective H chains were combined in a way that each of the alterations L234Y, G236W, S298A, S239D, A330L, and I332E is present in the same H chain as P329R or in the different H chain from P329R, and the expression vector GpL16-k0 for the L chain was combined with them. Antibodies of interest were expressed and prepared according to the method described in Reference Example 1. The prepared antibodies were used to assay the FcγRIIIa-binding activity. The result of assessment using P329R on the direction of FcγRIIIa recognition by L234Y, G236W, S298A, S239D, A330L, and I332E is summarized in Table 12.
Analysis of interaction between objective antibody and the FcγR was carried out using Biacore T100 (GE Healthcare). HBS-EP+ (GE Healthcare) was used as the running buffer, and the measurement temperature was set to 25° C. Chips produced by immobilizing the antigen peptide by the amine coupling method to a Series S Sencor Chip CM5 (GE Healthcare), or alternatively, chips produced by allowing preliminarily biotinylated antigen peptides to interact with and immobilize onto a Series S Sensor Chip SA (certified) (GE Healthcare) were used. Antibodies of interest were captured onto an antigen peptide-immobilized chip, and allowed to interact to each FcγR diluted with running buffer. To regenerate and repeatedly use the chip, the antibodies captured on the chip were washed off by reacting 10 mM glycine-HCl, pH 1.5.

T1 sequence (P08637 17-208): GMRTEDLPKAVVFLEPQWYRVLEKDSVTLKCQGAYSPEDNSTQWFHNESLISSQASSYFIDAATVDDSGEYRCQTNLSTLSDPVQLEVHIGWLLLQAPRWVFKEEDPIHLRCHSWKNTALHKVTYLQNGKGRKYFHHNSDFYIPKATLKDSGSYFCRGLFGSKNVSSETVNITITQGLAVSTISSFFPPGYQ

FcγRIIIa BINDING ACTIVITY (relative) | Binder
60 relative, GpH7-A5/GpH7-B3/GpL16-k0 = 100 | B1
32 relative, GpH7-A5/GpH7-B3/GpL16-k0 = 100 | B2
189 relative, GpH7-A5/GpH7-B3/GpL16-k0 = 100 | B3
35 relative, GpH7-A5/GpH7-B3/GpL16-k0 = 100 | B4
13 relative, GpH7-A5/GpH7-B3/GpL16-k0 = 100 | B5
60 relative, GpH7-A5/GpH7-B3/GpL16-k0 = 100 | B6
56 relative, GpH7-A5/GpH7-B3/GpL16-k0 = 100 | B7
11 relative, GpH7-A5/GpH7-B3/GpL16-k0 = 100 | B8
3 relative, GpH7-A5/GpH7-B3/GpL16-k0 = 100 | B9
84 relative, GpH7-A5/GpH7-B3/GpL16-k0 = 100 | B10
123 relative, GpH7-A5/GpH7-B3/GpL16-k0 = 100 | B11
47 relative, GpH7-A5/GpH7-B3/GpL16-k0 = 100 | B12
